The record followed here is patent US11499200B2, “Methods for determining resistance or susceptibility to HIV entry inhibitors” (Monogram Biosciences, Inc., priority 2005, dated 2022).

In test [1] the target is clone 3 of FIG. 6 envelope protein (clone 11 of FIGS. 7-9), with L261S (HIV-1). Nature of the test: cell-based or functional assay.
Test [2] has as its target clone 3 of FIG. 6 envelope protein with the wild-type residue at position 261 (HIV-1). Nature of the test: cell-based or functional assay.
For test [3], the system named is HIV-1 particles pseudotyped with patient-derived or chimeric envelope proteins (gp160). Nature of the test: Cell based HIV-1 entry assay (pseudotyped virus, luciferase): entry inhibitor susceptibility. To be noted: FIG. 6; compared with sensitivity to B4. As for the experimental part: In this embodiment, drug susceptibility, co-receptor tropism and virus neutralization testing are performed by co-transfecting a host cell with pHIVenv and pHIVlucΔU3. The host cell produces HIV particles that are pseudo-typed with HIV envelope sequences derived from the test virus or subject sample. Virus particles are collected (˜48 h) after transfection and are used to infect target cells that express HIV receptors (e.g. CD4) and co-receptors (e.g. CXCR4, CCR5). After infection (˜72 h) the target cells are lysed and luciferase activity is measured. HIV must complete one round of replication to successfully infect the target host cell and produce luciferase activity. […]
Drug susceptibility testing was performed using pHIVenv and pHIVluc or pHIVlucΔU3. […] After infection (˜72 h) the target cells are lysed and luciferase activity is measured. […] The amount of luciferase activity detected in the infected cells is used as a direct measure of “infectivity” (FIGS. 1 and 2). […] Drug susceptibility is assessed by comparing the infectivity in the absence of drug to infectivity in the presence of drug. Relative drug susceptibility can be quantified by comparing the susceptibility of the “test” virus to the susceptibility of a well-characterized reference virus (wildtype) derived from a molecular clone of HIV-1, for example NL4-3 or HXB2. […]

For “PRO542 (from UniProt P01730 26-204) (receptor)”, the IC50 of PRO542, log-sigmoid inhibition curves of the entry assay in test [1] amounted to 11 µg/ml; in test [2] it was 0.9 µg/ml. As for “TNX-355: HIV entry inhibitor under investigation (Tanox Inc.), listed as CD4 binding site entry inhibitor”, in test [3], the “sensitivity to entry inhibitor, sixteen clones of one patient” value is “varied inversely to sensitivity to B4”.
